Laboratory results: patent US20050100554A1 (published 2005)

B1: Rab coupling protein (other)
chain: MSLMVSAGRGLGAVWSPTHVQVTVLQARGLRAKGPGGTSDAYAVIQVGKEKYATSVSERSLGAPVWREEATFELPSLLSSGPAAAATLQLTVLHRALLGLDKFLGRAEVDLRDLHRDQGRRKTQWYKLKSKPGKKDKERGEIEVDIQFMRNNMTASMFDLSMKDKSRNPFGKLKDKIKGKNKDSGSDTASAIIPSTTPSVDSDDESVVKDKKKKSKIKTLLSKSNLQKTPLSQSMSVLPTSKPEKVLLRPGDFQSQWDEDDNEDESSSASDVMSHKRTASTDLKQLNQVNFTLPKKEGLSFLGGLRSKNDVLSRSNVCINGNHVYLEQPQPTGEIKDSSPSSSPSPKGFRKKTLFSSTENLAAGSWKEPAEGGGLSTDRDVSESSTKDSLKSMTLPTYRPAPLISGDLREKMAPANSEATKEAKESKKPESRRSSLLSLMTGKKDVAKGSEGENLLTVPGREKEGMLMGVKPGEDASGPAEDLVRRSEKDTAAVVSRQGSSLNLFEDVQITEPEAEPESKSEPRPPISSPRAPQTRAVKPRLHPVKPMNATATKVANCSLGTATIISENLNNEVMMKKYSPSDPAFAYAQLTHDELIQLVLKQKETISKKEFQVRELEDYIDNLLVRVMEETPNILRIPTQVGKKAGKM
notes: also called Hs.30289; RCP
B2: Human papillomavirus 16 E7 (other)
chain: MHGDTPTLHEYMLDLQPETTDLYCYEQLNDSSEEEDEIDGPAGQAEPDRAHYNIVTFCCKCDSTLRLCVQSTHVDIRTLEDLLMGTLGIVCPICSQKP
notes: also called HPV 16 E7; HPV16 E7
B3: chemokine-like factor 1 (other)
chain: MDNVQPKIKHRPFCFSVKGHVKMLRLALTVTSMTFFIIAQAPEPYIVITGFEVTVILFFILLYVLRLDRLMKWLFWPLLDIINSLVTTVFMLIVSVLALIPETTTLTVGGGVFALVTAVCCLADGALIYRKLLFNPSGPYQKKPVHEKKEVL
notes: also called HSPC224; CKLF1
B4: Human papillomavirus 16 L2 (other)
chain: MRHKRSAKRTKRASATQLYKTCKQAGTCPPDIIPKVEGKTIAVQILQYGSMGVFFGGLGIGTGSGTGGRTGYIPLGTRPPTATDTLAPVRPPLTVDPVGPSDPSIVSLVEETSFIDAGAPTSVPSIPPDVSGFSITTSTDTTPAILDINNTVTTVTTHNNPTFTDPSVLQPPTPAETGGHFTLSSSTISTHNYEEIPMDTFIVSTNPNTVTSSTPIPGSRPVARLGLYSRTTQQVKVVDPAFVTTPTKLITYDNPAYEGIDVDNTLYFSSNDNSINIAPDPDFLDIVALHRPALTSRRTGIRYSRIGNKQTLRTRSGKSIGAKVHYYYDLSTIDPAEEIELQTITPSTYTTTSHAASPTSINNGLYDIYADDFITDTSTTPVPSVPSTSLSGYIPANTTIPFGGAYNIPLVSGPDIPINITDQAPSLIPIVPGSPQYTIIADAGDFYLHPSYYMLRKRRKRLPYFFSDVSLAA
notes: also called HPV 16 L2; cbe_251737

Columns and labels:
[1] = biological target: B4; experiment: Y2H; INT ID 189
[2] = biological target: T1, tissue factor pathway inhibitor (lipoprotein-associated coagulation inhibitor) (human, UniProt P10646 29-304); experiment: Y2H; INT ID 172
T1 construct: also called TFPI; cbe_3834015
T1 sequence: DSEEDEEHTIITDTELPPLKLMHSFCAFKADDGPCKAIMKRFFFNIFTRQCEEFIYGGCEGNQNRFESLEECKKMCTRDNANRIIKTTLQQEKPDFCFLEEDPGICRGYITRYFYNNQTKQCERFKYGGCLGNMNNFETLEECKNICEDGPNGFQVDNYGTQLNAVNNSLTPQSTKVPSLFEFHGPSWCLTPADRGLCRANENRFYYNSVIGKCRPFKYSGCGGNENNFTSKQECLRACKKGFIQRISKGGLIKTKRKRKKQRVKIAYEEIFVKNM

[3] = biological target: T2, PSMC1 (human, UniProt P62191 2-440); experiment: Y2H; INT ID 179
T2 construct: also called proteosome 26S subunit; proteosome subunit PMSC1

[4] = biological target: T3, zinc finger protein ZNF140-like protein (human, UniProt Q9NR11 1-478); experiment: Y2H; INT ID 170
T3 construct: also called LOC55828; cbe_3787129

[5] = biological target: T4, PTPN21 (human, UniProt Q16825 1-1174); experiment: Y2H; INT ID 174
T4 construct: also called cbe_4260642
T4 sequence: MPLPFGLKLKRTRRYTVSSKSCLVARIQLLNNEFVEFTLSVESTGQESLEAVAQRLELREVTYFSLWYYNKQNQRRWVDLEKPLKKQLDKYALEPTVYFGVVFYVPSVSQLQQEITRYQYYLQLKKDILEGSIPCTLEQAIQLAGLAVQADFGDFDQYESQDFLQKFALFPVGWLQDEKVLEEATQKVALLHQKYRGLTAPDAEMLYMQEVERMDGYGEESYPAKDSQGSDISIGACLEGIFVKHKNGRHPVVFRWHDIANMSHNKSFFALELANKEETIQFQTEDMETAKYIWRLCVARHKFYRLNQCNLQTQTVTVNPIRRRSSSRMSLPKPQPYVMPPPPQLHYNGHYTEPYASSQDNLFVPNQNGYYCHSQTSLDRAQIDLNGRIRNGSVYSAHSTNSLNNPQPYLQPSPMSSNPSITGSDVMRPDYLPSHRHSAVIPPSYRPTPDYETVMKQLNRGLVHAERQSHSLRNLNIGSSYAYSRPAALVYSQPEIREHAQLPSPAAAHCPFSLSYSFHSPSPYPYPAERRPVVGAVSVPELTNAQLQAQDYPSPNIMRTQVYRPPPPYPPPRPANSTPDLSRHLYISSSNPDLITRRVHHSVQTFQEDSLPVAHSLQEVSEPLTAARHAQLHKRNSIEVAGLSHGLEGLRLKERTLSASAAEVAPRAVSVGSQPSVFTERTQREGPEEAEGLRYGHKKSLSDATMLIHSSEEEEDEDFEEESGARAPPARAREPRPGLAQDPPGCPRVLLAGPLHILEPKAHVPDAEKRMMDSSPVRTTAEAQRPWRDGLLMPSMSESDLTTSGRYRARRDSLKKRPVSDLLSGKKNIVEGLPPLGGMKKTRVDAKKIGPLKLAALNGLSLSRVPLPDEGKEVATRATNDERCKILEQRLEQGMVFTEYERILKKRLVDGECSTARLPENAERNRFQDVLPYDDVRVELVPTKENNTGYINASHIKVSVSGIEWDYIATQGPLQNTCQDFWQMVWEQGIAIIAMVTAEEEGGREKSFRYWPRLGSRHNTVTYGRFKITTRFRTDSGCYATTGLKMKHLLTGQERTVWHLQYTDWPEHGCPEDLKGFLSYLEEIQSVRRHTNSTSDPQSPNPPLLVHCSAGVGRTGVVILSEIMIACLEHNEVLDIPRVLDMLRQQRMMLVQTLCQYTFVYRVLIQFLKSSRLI

[6] = biological target: T5, STX4A (human, UniProt Q12846 1-297); experiment: Y2H; INT ID 181
T5 construct: also called syntaxin 4; cbe_4270186
T5 sequence: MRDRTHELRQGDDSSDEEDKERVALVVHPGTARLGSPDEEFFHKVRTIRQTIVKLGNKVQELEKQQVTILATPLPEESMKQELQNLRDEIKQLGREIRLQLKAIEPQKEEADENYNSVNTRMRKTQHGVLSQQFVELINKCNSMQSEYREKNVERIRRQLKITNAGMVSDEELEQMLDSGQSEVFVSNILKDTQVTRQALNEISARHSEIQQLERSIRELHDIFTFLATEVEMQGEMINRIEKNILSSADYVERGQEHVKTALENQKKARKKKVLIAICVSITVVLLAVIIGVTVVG

[7] = biological target: T6, keratin 4 (human, UniProt P19013 1-520); experiment: Y2H; INT ID 168
T6 construct: also called KRT4; cbe_3474077

[8] = biological target: T7, NDUFS3 (human, UniProt O75489 37-264); experiment: Y2H; INT ID 176
T7 construct: also called cbe_4268611

[9] = biological target: T8, MPP3 (human, UniProt Q13368 1-585); experiment: Y2H; INT ID 173
T8 construct: also called cbe_3921620
T8 sequence: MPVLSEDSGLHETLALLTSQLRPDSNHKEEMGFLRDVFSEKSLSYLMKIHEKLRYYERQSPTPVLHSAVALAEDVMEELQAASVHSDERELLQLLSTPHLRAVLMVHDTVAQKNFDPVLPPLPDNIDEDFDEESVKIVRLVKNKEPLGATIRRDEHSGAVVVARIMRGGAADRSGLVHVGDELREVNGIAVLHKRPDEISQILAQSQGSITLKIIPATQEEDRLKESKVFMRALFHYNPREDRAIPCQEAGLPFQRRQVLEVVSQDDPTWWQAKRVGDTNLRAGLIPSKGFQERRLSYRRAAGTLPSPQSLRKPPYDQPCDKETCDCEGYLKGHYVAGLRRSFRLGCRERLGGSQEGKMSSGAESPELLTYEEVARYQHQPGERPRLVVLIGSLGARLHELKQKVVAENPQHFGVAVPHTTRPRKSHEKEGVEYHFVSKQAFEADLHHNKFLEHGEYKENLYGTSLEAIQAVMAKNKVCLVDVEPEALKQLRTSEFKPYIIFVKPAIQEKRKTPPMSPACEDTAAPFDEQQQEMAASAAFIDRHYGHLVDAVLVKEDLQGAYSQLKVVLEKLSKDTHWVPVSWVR

[10] = biological target: B4; experiment: Y2H; INT ID 188
[11] = biological target: T9, KIAA1389 protein (human, UniProt Q9P2F8 219-1722); experiment: Y2H; INT ID 187
T9 construct: also called cbe_3663966

[12] = biological target: T10, signal-induced proliferation-associated 1 like 1 (human, UniProt O43166 1-1804); experiment: Y2H; INT ID 184
T10 construct: also called KIAA0440; cbe_3056756

[13] = biological target: T11, gbh_al121903 (human, UniProt Q9Y6D5 1145-1785); experiment: Y2H; INT ID 185
T11 construct: also called cbe_3473488
T11 sequence: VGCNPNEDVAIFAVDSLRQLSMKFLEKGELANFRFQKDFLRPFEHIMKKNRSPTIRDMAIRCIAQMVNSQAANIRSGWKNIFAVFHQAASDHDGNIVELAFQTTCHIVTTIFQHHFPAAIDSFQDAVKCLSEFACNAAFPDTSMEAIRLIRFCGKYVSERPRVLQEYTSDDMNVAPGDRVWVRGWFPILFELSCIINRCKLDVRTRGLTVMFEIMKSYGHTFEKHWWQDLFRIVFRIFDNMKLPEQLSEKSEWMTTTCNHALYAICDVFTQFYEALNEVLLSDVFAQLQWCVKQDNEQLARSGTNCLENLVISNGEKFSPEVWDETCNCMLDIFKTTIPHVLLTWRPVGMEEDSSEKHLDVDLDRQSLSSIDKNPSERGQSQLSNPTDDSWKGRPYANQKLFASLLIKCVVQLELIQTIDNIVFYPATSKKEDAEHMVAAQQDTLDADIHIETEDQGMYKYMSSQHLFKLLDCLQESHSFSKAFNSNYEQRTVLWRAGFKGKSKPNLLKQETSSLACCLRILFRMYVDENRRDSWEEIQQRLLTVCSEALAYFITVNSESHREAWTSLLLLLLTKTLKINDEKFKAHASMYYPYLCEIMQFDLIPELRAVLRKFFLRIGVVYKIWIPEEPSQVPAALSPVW

Measured: binding result

T10 sequence (O43166 whole entry): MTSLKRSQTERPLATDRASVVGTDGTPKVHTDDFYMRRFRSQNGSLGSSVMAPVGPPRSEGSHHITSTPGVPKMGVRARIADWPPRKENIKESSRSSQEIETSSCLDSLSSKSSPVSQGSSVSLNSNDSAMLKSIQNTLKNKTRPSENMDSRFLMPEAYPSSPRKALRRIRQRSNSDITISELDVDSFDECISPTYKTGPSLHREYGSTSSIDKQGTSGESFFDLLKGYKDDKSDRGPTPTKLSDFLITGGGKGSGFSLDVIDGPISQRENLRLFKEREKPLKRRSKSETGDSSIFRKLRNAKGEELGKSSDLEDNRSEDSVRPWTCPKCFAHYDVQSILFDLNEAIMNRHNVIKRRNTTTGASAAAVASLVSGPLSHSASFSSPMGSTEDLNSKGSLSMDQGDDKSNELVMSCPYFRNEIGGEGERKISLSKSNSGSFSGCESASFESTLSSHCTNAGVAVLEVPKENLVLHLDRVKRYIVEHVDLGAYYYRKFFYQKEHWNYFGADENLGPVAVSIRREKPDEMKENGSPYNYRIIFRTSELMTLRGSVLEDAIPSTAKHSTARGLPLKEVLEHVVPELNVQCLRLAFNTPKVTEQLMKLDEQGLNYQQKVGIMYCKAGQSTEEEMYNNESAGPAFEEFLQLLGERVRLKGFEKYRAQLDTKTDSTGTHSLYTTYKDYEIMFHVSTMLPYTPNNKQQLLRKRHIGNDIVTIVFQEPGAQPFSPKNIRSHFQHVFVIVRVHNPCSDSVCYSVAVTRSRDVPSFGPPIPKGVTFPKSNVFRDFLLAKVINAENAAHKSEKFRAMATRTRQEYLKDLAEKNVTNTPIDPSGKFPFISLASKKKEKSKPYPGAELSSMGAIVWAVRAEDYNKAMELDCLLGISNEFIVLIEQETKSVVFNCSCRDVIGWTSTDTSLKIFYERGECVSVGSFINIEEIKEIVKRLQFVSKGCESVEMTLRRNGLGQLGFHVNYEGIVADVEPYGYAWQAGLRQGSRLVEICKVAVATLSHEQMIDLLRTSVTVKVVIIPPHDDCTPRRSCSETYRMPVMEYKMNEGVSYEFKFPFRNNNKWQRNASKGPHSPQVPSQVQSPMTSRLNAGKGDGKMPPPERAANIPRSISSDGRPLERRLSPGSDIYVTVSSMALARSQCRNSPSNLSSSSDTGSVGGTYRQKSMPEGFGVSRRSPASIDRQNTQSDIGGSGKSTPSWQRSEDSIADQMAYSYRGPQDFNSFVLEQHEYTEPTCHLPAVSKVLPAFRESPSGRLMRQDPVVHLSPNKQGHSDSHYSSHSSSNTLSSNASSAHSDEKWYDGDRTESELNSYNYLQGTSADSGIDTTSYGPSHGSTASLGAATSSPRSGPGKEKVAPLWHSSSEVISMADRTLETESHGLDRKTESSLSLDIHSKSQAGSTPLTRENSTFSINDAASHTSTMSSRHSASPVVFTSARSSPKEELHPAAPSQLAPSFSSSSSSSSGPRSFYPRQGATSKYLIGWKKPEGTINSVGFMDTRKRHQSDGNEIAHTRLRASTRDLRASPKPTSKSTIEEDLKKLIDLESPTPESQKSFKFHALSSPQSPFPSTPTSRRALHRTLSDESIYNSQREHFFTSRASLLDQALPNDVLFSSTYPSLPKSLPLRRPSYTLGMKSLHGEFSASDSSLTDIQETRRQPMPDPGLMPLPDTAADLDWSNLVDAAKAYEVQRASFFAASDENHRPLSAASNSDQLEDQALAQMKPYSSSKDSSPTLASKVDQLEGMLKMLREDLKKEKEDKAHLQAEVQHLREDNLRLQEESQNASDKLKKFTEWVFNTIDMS
T3 sequence (Q9NR11 whole entry): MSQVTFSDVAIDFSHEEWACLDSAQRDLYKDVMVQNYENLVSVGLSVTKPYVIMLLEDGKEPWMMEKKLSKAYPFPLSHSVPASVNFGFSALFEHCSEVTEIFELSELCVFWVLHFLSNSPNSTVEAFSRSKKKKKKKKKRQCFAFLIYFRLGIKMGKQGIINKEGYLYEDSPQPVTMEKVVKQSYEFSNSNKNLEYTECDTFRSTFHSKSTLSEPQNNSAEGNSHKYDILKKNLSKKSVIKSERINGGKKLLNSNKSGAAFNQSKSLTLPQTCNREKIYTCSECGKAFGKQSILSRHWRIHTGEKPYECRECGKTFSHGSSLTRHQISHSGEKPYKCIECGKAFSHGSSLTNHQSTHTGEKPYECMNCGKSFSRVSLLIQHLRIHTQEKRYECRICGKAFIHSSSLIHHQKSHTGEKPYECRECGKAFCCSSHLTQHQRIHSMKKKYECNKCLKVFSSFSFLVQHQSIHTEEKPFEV
T2 sequence (P62191 2-440 limits assumed): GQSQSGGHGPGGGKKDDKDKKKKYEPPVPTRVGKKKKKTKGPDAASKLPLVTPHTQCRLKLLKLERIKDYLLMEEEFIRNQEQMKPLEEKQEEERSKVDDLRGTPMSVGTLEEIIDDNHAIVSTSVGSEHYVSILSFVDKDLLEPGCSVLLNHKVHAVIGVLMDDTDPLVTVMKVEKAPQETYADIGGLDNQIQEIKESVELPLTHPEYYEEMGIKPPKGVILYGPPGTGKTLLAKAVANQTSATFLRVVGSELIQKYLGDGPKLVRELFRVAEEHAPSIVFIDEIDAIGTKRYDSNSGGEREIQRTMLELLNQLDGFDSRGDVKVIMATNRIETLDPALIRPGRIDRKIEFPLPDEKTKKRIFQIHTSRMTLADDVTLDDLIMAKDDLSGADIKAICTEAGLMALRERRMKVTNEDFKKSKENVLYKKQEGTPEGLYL
T9 sequence (Q9P2F8 other isoform, or with tags, fused parts or gaps limits assumed): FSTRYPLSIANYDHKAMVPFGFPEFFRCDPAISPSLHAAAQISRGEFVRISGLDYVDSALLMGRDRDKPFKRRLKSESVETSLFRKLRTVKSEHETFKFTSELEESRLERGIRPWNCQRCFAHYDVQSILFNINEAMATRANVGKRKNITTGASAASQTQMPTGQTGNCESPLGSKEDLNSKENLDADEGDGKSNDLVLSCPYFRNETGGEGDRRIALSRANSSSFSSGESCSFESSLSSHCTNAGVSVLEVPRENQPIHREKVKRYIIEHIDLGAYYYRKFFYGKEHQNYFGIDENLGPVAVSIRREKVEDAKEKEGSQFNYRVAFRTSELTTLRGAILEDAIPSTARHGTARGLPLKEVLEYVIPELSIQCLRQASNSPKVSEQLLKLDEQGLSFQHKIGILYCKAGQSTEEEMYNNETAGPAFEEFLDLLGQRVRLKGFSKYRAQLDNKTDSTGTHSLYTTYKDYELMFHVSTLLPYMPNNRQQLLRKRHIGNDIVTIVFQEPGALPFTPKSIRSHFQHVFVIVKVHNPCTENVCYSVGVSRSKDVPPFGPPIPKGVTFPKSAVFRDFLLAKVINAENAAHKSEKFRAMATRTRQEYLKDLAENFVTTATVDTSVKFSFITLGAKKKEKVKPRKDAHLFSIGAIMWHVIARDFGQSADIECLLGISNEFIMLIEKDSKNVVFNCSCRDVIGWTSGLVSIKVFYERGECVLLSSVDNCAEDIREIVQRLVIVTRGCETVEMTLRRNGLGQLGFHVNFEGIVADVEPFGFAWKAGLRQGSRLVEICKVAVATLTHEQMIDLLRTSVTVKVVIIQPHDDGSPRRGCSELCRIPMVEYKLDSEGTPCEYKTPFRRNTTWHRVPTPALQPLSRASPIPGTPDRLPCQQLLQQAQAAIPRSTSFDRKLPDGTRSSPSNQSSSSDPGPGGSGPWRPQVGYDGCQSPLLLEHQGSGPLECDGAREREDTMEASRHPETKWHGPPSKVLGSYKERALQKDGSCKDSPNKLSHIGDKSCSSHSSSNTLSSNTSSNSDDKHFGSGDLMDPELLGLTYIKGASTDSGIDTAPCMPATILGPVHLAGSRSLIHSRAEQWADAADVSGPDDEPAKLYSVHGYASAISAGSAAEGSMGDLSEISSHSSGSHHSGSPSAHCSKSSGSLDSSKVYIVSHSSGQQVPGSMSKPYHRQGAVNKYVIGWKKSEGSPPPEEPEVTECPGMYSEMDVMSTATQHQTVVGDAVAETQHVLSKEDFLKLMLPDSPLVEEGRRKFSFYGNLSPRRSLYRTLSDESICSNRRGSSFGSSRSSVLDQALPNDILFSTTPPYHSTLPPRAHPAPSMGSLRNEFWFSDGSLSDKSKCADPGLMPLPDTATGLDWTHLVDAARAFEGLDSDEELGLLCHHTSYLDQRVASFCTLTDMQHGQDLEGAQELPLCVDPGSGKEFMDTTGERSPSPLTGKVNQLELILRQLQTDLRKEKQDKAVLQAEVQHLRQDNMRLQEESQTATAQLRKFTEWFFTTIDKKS
T7 sequence (O75489 37-264 limits assumed): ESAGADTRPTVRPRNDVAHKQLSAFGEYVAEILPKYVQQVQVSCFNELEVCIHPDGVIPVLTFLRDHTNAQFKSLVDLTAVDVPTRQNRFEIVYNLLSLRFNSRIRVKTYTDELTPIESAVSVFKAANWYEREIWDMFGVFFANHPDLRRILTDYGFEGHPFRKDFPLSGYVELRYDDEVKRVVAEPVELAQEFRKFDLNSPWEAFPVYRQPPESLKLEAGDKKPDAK
T6 sequence (P19013 other isoform, or with tags, fused parts or gaps limits assumed): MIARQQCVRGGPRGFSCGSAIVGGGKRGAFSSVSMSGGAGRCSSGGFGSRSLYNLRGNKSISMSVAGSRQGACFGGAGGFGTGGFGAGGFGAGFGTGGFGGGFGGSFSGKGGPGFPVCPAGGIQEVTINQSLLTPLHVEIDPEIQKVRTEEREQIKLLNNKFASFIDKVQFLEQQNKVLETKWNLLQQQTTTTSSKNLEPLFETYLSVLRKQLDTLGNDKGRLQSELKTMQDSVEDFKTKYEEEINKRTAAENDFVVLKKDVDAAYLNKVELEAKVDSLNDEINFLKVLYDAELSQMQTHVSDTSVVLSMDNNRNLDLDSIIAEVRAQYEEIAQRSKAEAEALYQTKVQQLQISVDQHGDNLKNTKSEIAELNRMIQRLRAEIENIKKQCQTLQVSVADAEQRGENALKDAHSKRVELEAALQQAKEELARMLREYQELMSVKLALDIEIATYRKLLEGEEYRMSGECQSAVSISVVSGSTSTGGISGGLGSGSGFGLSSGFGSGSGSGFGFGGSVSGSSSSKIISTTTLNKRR

B1
binds: [1]

B2
binds: [2] | [3] | [4] | [5] | [6] | [7] | [8] | [9]

B3
binds: [10]

B4
binds: [11] | [12] | [13]
